From the supplement of paper PMC10126150
± gives the standard deviation of the averaged measurements.

Test system: ATP
Assay: switch fluorescence ratio, 500 uM ATP over buffer (Cy3 cluster intensity, sum of 5 cycles each) (fold (ratio)); higher = stronger signal-on switching upon ATP binding; sequences stand for … in TCGTCGGCAGCGTCAGATGTGTATAAGAGACAGTTTTTTTTTTTTTTTTTTTTTTTTT…TC
Details: aptamer strand: ATP DNA aptamer (quencher-CACCTGGGGGAGTATTGCGGAGGAAGG + anchor), 100 nM annealed; ATP concentration: 500 uM
Procedure, shortened: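 Imaging in selection buffer was followed by imaging after 15 min with 500 uM ATP at 22 °C, for Cy3-labelled switching-strand clusters annealed to 100 nM quencher-labelled ATP aptamer on a modified Illumina MiSeq flow-cell. Five of these buffer/ATP cycles ran, separated by NaOH stripping and re-annealing. The fluorescence ratio per cluster is summed target-cycle over summed buffer-cycle Cy3 intensity, averaged per switch-domain sequence; clusters outside 100-1000 RFU were removed.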
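Also: ATP exposure 15 min at 22 °C before imaging.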

Sequence | switch fluorescence ratio
TCGTTTAGCA | 1.07 ± 0.029
TCGTTTCCGT | 0.984 ± 0.035
TCGTTTGAGT | 0.997 ± 0.021
TCTAACGCTG | 1.13 ± 0.056
TCTAACTTTT | 1.01 ± 0.033
TCTAAGGGAG | 0.987 ± 0.012
TCTAATAGCC | 1.03 ± 0.08
TCTAATGGGC | 0.993 ± 0.05
TCTAATGGGT | 0.982 ± 0.017
TCTAATTCCT | 1.06 ± 0.024
TCTAGAGCGG | 1.02 ± 0.029
TCTAGGGACA | 1.25 ± 0.063
TCTAGGGGGG | 1.02 ± 0.058
TCTATAAGGA | 1.01 ± 0.048
TCTATAAGTT | 1.02 ± 0.044
TCTATGCGGG | 1.017 ± 0.0013
TCTATTATCA | 1.04 ± 0.024
TCTATTATTT | 1.03 ± 0.061
TCTATTGGTG | 1.02 ± 0.069
TCTATTGGTT | 0.966 ± 0.021
TCTATTTCGT | 1.01 ± 0.032
TCTCATTCTT | 1.03 ± 0.028
TCTCATTGGG | 0.9875 ± 0.004

Sequence | switch fluorescence ratio
TCTCCAGATA | 1.12 ± 0.034
TCTCCAGGAA | 1.62 ± 0.3
TCTCCGTGGG | 1.52 ± 0.37
TCTCGATTTT | 1.038 ± 0.0042
TCTCGCTTGG | 1.02 ± 0.037
TCTCGGCGGA | 1.02 ± 0.028
TCTCGGGCTT | 0.9873 ± 0.0047
TCTCGGGGTG | 1.04 ± 0.089
TCTCGTATAT | 1.05 ± 0.045
TCTCGTCTCT | 1.04 ± 0.028
TCTCGTTGGG | 1.012 ± 0.005
TCTCGTTTTT | 1 ± 0.043
TCTCTAAAGA | 1.04 ± 0.016
TCTCTATCCG | 0.997 ± 0.046
TCTCTGAATC | 1.24 ± 0.079
TCTCTGGAGA | 1.04 ± 0.011
TCTCTGGCAT | 1.79 ± 0.19
TCTCTGTTTT | 1.05 ± 0.022
TCTGAAAGTG | 0.989 ± 0.059
TCTGAACGGT | 0.983 ± 0.023
TCTGAGAGGA | 0.972 ± 0.032
TCTGAGCCGA | 1.39 ± 0.52
TCTGAGCGGC | 0.9349 ± 0.0037

Sequence | switch fluorescence ratio
TCTGAGTTTT | 1.05 ± 0.06
TCTGATGGGG | 1 ± 0.044
TCTGCCTTGG | 0.984 ± 0.011
TCTGCTACAA | 1.02 ± 0.038
TCTGCTTCCG | 1.03 ± 0.02
TCTGGAAAGG | 0.9844 ± 0.00033
TCTGGAAGGG | 1.02 ± 0.019
TCTGGACTCG | 1 ± 0.025
TCTGGGAAAA | 0.918 ± 0.037
TCTGGGAAGG | 1.01 ± 0.042
TCTGGGAATG | 0.983 ± 0.01
TCTGGGGGGC | 0.996 ± 0.075
TCTGGGGGGG | 0.99 ± 0.052
TCTGGGGGTA | 0.982 ± 0.022
TCTGGGTAAT | 0.996 ± 0.0013
TCTGGGTAGC | 1 ± 0.061
TCTGGGTGAT | 1.03 ± 0.015
TCTGGTAGGG | 0.99 ± 0.01
TCTGGTGGTT | 0.981 ± 0.01
TCTGGTTTGT | 1.04 ± 0.049
TCTGGTTTTT | 1.01 ± 0.015
TCTGTCCCGC | 1.16 ± 0.11
TCTGTGTTT | 0.9348 ± 0.0089

Sequence | switch fluorescence ratio
TCTGTTTTTG | 1.01 ± 0.063
TCTTAAAGGG | 0.9808 ± 0.0011
TCTTACTGGG | 0.997 ± 0.018
TCTTAGGGGT | 0.981 ± 0.021
TCTTAGGTCA | 0.973 ± 0.022
TCTTAGTAC | 1.05 ± 0.013
TCTTAGTGGG | 1.01 ± 0.017
TCTTAGTTAG | 0.9878 ± 0.0059
TCTTAGTTTG | 0.986 ± 0.015
TCTTATAGGT | 0.986 ± 0.017
TCTTATCGTT | 0.964 ± 0.019
TCTTATGCGG | 0.998 ± 0.019
TCTTATGGGG | 0.994 ± 0.019
TCTTCCGGTT | 1.233 ± 0.0018
TCTTGCAAGG | 1.11 ± 0.17
TCTTGCGTGG | 0.954 ± 0.01
TCTTGCTCGG | 1.01 ± 0.053
TCTTGCTCGT | 1.02 ± 0.0014
TCTTGGGCCG | 1.03 ± 0.061
TCTTGGGCTG | 0.9719 ± 0.0073
TCTTGGGGGC | 1.01 ± 0.052
TCTTGGGGT | 1.06 ± 0.15
TCTTGGTAAT | 0.996 ± 0.018

Sequence | switch fluorescence ratio
TCTTGTGCAT | 1.05 ± 0.03
TCTTGTTAT | 1.01 ± 0.051
TCTTGTTTTG | 0.994 ± 0.048
TCTTTAATTT | 0.985 ± 0.026
TCTTTCAGTT | 0.9816 ± 0.0082
TCTTTGAGGT | 0.989 ± 0.022
TCTTTGATCT | 1.02 ± 0.054
TCTTTGATTA | 1.01 ± 0.042
TCTTTGCGCG | 1.02 ± 0.019
TCTTTGGACT | 1.002 ± 0.0032
TCTTTGGGGG | 1 ± 0.053
TCTTTGGTCG | 1.02 ± 0.12
TCTTTGTTGA | 0.995 ± 0.032
TCTTTGTTGT | 1.01 ± 0.019
TCTTTTGCAT | 1.06 ± 0.019
TCTTTTGTG | 1.13 ± 0.2
TCTTTTTAGT | 1 ± 0.029
TGAAAAAAGG | 0.966 ± 0.03
TGAAAAATGT | 0.984 ± 0.016
TGAAAAGCGC | 1.01 ± 0.024
TGAAAAGGGG | 0.998 ± 0.052
TGAAAAGGTT | 0.983 ± 0.023
TGAAACCCTA | 1.03 ± 0.016

Sequence | switch fluorescence ratio
TGAAAGATCG | 1.02 ± 0.04
TGAAAGGAAT | 1.13 ± 0.19
TGAAAGGCTC | 1.1 ± 0.14
TGAAAGGCTT | 1.06 ± 0.074
TGAAAGGGAA | 0.9898 ± 0.0074
TGAAAGTCTC | 1.003 ± 0.0057
TGAAAGTTGT | 1.02 ± 0.029
TGAAAGTTTG | 1.01 ± 0.026
TGAAATAAG | 0.979 ± 0.026
TGAAATATTG | 0.996 ± 0.022
TGAAATCAGT | 1.01 ± 0.018
TGAAATGGGG | 0.98 ± 0.049
TGAAATTGTG | 1.01 ± 0.022
TGAAATTTAT | 1.01 ± 0.032
TGAACAAGGG | 0.962 ± 0.015
TGAACCAGGG | 1.05 ± 0.018
TGAACCTTCA | 2.71 ± 0.14
TGAACGTTGG | 0.997 ± 0.029
TGAAGAAGTG | 0.994 ± 0.022
TGAAGCTTGG | 1.026 ± 0.0073
TGAAGCTTGT | 1.004 ± 0.003
TGAAGGAGGT | 1 ± 0.015
TGAAGGGGAC | 0.998 ± 0.015

Sequence | switch fluorescence ratio
TGAAGGGGTA | 1.01 ± 0.059
TGAAGGGGTG | 0.989 ± 0.026
TGAAGGGTAT | 1.02 ± 0.033
TGAAGGTAAA | 1.02 ± 0.042
TGAAGTAAGG | 1.03 ± 0.029
TGAAGTATAG | 0.9901 ± 0.005
TGAAGTCGAC | 1 ± 0.068
TGAAGTCGCT | 1.02 ± 0.0048
TGAAGTCTGC | 0.968 ± 0.036
TGAAGTGTTT | 1.01 ± 0.028
TGAAGTTAGC | 0.977 ± 0.011
TGAAGTTAGG | 1.01 ± 0.021
TGAAGTTCGG | 1.06 ± 0.025
TGAAGTTGTA | 0.965 ± 0.035
TGAATAGAGG | 1.012 ± 0.0024
TGAATAGGGT | 1.03 ± 0.073
TGAATATATT | 1.01 ± 0.022
TGAATATCTT | 1.01 ± 0.026
TGAATATGCG | 0.988 ± 0.0096
